According to US12419937B2, “High concentration alpha-glucosidase compositions for the treatment of Pompe disease” (Amicus Therapeutics, Inc., priority 2012, dated 2025):

Columns and labels:
[1] = Solubility of Lumizyme® in the presence of 1-DNJ-HCl and excipients (Example 12); assay type: physicochemical; details: for Protein solubility: phosphate buffer
Experimental: A vial of Lumizyme® containing 52.5 mg protein, 210 mg mannitol, 0.5 mg polysorbate 80, 9.9 mg Na2HPO4×7H2O, and 31.2 mg NaH2PO4×H2O was dissolved in a minimal volume of water (1 mL added) yielding 1.2 mL of protein solution. Five 240-μL aliquots (each containing 10.5 mg protein) were transferred to Amicon Ultra 0.5 mL 30 kDa cutoff centrifugal filter devices and centrifuged for 10 min at 14,000×g in an Eppendorf centrifuge to obtain about 50 μL of retentate.
The original excipients present in the composition, i.e., mannitol and polysorbate 80 were exchanged for new excipients to test protein solubility (keeping the same buffer conditions). The following excipient solutions were prepared for the exchange using the original phosphate buffer:
For exchanging excipients, 5.2 mg Na2HPO4 and 27.1 mg NaH2PO4 were dissolved in 10.3 mL water to prepare the washing/excipient exchange phosphate buffer of approximately 26 mM. A volume of 8 mL of the buffer for excipient exchange was supplemented with 160 mg/mL of the small molecule ligand (to prepare excipient 1, 3, 4 and 5 solutions), while 2 mL was supplemented with 32 mg/mL ligand for excipient 2 (100 mM Arginine). Each of the excipients were dissolved in 2 mL of this buffer at the concentrations listed above.
An excipient solution was added to each separate filter device to achieve a total volume of 0.5 mL. Each filter device was centrifuged for 15 min at 14,000×g in a bench top Eppendorf centrifuge to retain approximately 25 μL. The units were re-filled with the same excipient solution to 0.5 mL and centrifuged again (this process was repeated 2 times). This procedure efficiently replaced mannitol and polysorbate 80 with excipients described above, diluting the original constituents by about 1:1000. All filtrates for each excipient were collected and examined for any protein leaks through the filter.
Each centrifugal filter device was inverted in a clean tube, and the concentrated protein solution was collected from each filter device by centrifugation for 2 min at 1000×g. The volume of each sample was determined (66 μL, corresponding to a target protein concentration of 160 mg/mL), and it was confirmed that no visible precipitate was observable in each sample. Samples were transferred back to their respective filter devices and centrifuged for an additional 5 min. Samples were then collected by inversion of the filters into clean tubes and centrifuging for 2 min at 1000×g to yield about 37 μL of retentate (corresponding to >280 mg/mL protein based on a total initial concentration of 10.5 mg protein).
The samples were vortexed and incubated for 1 hr at room temperature to equilibrate liquid and solid phases followed by centrifugation for 10 min at 14,000×g. Again, no visible precipitate was observed. Two-three 10 μL aliquots were taken from the supernatant of each sample (depending on available volume of the liquid phase), and diluted 1:1000 in two steps. Protein concentration was measured by UV absorbance at 280 nm, and the maximum protein solubility was calculated according to a highly reproducible calibration curve. The calibration curve was prepared by dissolving 6.8 mg of Myozyme® (alglucosidase alpha) lyophilized powder (containing 1.16 mg protein) in 1.16 mL of water followed by a serial dilution in deionized water. Absorbance was measured at 280 nm in a 1 cm light-pass quartz semi-micro cuvette using 0.5 mL aliquots.

[2] = tested on: GAA KO mice; experiment: Repeat subcutaneous dosing of rhGAA or rhGAA + 1-DNJ co-formulation in GAA KO mice (Example 13); assay type: in vivo, mouse
Experimental: 12-week old male GAA KO mice in groups of 7 were used in the present study. Each group of mice was administered one of the following treatments:
(2) Lumizyme® alone (20 mg/kg) delivered subcutaneously (SQ); or
(3) Co-formulated Lumizyme® (20 mg/kg) and 1-DNJ (30 mg/kg) SQ.
Each of the treatments were administered to their respective treatment group for a period of 2 weeks. The treatments were administered on Monday and Thursday of each week. SQ injections were administered between the shoulder blades of each mouse receiving treatment. A total of 4 doses was administered to each study animal. Diphenhydramine was administered intraperitoneally (IP) before the 3rd and 4th doses.
rhGAA and glycogen levels were determined according to the following sampling protocol. Blood was taken from each study animal after the 4th dose for plasma pharmacokinetic analysis. GAA activity, Western blots, and 1-DNJ levels were determined for plasma samples taken 2 and 4 hours after the last SQ dose.
Tissue samples were collected to determine rhGAA uptake 3 days following the last dose of the study (i.e., 3 days post dose 4). Tissue samples included heart, diaphragm, tongue, brain, spleen, liver, biceps, triceps, quadriceps, soleus, gastrocnemius, ventral skin and dorsal skin from the SQ injection site. Tissue samples were also collected to determine glycogen concentration 14 days following the last dose of the study (i.e., 14 days post dose 4).

[3] = target: T1, recombinant human GAA (Myozyme®) (Homo sapiens, UniProt P10253); experiment: SYPRO Orange thermal stability assay (heat-induced denaturation); assay type: physicochemical; details: pH 5.2 vs pH 7.4; no ASSC
T1 construct: purchased Genzyme Corp
Excerpt: The thermal stability assay utilizes heat to induce protein denaturation, which is monitored using a SYPRO Orange dye that fluoresces upon binding to hydrophobic amino acids (which are not exposed in a folded protein).
FIG. 5 depicts the results of a thermal stability assay that utilizes heat to induce protein denaturation, which is monitored using a SYPRO Orange dye that fluoresces upon binding to hydrophobic amino acids (which are not exposed in a folded protein).
Denaturation is monitored using a SYPRO Orange dye that fluoresces upon binding to hydrophobic amino acids (which are not exposed in a folded protein).
The thermal stability was performed at pH 7.4 for two formulations, which corresponds to the pH of the ER.

[4] = tested on: GAA KO mice; experiment: Myozyme® tissue uptake in GAA KO mice with and without oral 1-DNJ-HCl (Example 3); assay type: in vivo, mouse; details: 10 mg/kg IV weekly; 7 days post injection
Experimental: Five groups of GAA KO mice were administered one of the following formulations: […]
(2) 10 mg/kg of Myozyme® IV once per week, for up to three weeks
Tissue homogenates were generated for analysis. Enzymatic activity as determined using a 4-MUG fluorogenic substrate assay.

[5] = tested on: GAA KO mice; experiment: Tissue glycogen reduction in GAA KO mice (Example 9); assay type: in vivo, mouse; details: Myozyme® 40 mg/kg IV every other week for 8 weeks ± 30 mg/kg oral 1-DNJ-HCl, relative to untreated mice
Experimental: Glycogen reduction with Myozyme® alone was 93±1%, 41±4%, 69±3%, and 18±4%, in heart (A), diaphragm (B), soleus (C), and quadriceps (D), respectively, relative to untreated mice.
Twelve-week old male GAA KO mice were administered a single dose of Myozyme® (40 mg/kg) via bolus tail vein injection every other week for 8 weeks. To prevent anaphylaxis, before the third and fourth Myozyme® injection, diphenhydramine (10 mg/kg intraperitoneally) was administered 10 min before Myozyme® injection. […] Mice were euthanized 14 days after the last Myozyme® administration.
Glycogen levels in heart, diaphragm, soleus, and quadriceps were then measured. […] Briefly, homogenates were prepared by homogenizing ˜50 mg tissue for 3-5 seconds on ice with a microhomogenizer in […] deionized water. Supernatants were heat denatured (99° C. for 10 min) to remove endogenous amyloglucosidase activity. Denatured lysates (4 μL) were then analyzed in duplicate by addition of 36 μL water with and without 10 μL of 800 U/mL of amyloglucosidase (Sigma Aldrich, St. Louis, MO) and incubated for 1 hour at 50° C. The reaction was stopped by inactivation at 100° C. for 10 min. Finally, 200 μL of glucose reagent (Sigma) was added absorbance read at 340 nm on Spectramax. A standard curve ranging from 5 μg/mL to 400 μg/mL Type III rabbit liver glycogen (Sigma) was run each day for conversion of absorbance to absolute glycogen units. Simultaneously, the amount of protein was determined in tissue homogenates using the Micro BCA Protein Assay (Pierce, Rockford, IL) following the manufacturer's instructions. The glycogen content of each sample was normalized to protein, and data were finally expressed as micrograms of glycogen per milligram of protein (μg/mg protein).

[6] = tested on: GAA KO mice; experiment: rhGAA activity uptake after Myozyme® IV bolus in GAA KO mice (comparison study of Table 3); assay type: in vivo, mouse; details: 4 doses 20 mg/kg IV bolus at 2 week intervals, 3 days after the last dose
[7] = reported; cited from earlier work
[8] = target: T2, rhGAA (e.g., Myozyme®) (Homo sapiens, UniProt P10253); experiment: rhGAA enzyme inactivation in citrate anti-coagulated whole blood at 37° C. (Examples 7, 8); assay type: in vitro ADME; details: for enzyme inactivated in whole blood: no 1-DNJ-HCl
T2 construct: purchased Genzyme Corp; host or cells: Chinese hamster ovary cell line
Experimental: Aliquots were collected at 0, 2, 4, 8 and 24 hrs and centrifuged to obtain plasma. These plasma samples were then diluted in potassium acetate buffer (pH 4.0) and assayed for GAA activity using the 4-methylumbeliferyl-α-glucose (4-MUG) fluorogenic substrate. The measured GAA activity for individual samples at each time point was normalized to the 0 hr and expressed as % of initial activity. Data from 4 independent experiments were analyzed to obtain the mean (and standard deviation) and plotted versus time to assess the loss of enzyme activity over this time course.
Aliquots were collected at 0, 3 and 6 hrs and centrifuged to obtain plasma. These plasma samples were then diluted in potassium acetate buffer (pH 4.0) and assayed for GAA activity using the 4-methylumbeliferyl-α-glucose (4-MUG) fluorogenic substrate. The measured GAA activity for individual samples at each time point was normalized to the 0 hr and expressed as % of initial activity.
Moreover, since Myozyme® has a long plasma half-life (reported to be more than 3 hrs), there is a high probability that an appreciable amount of the enzyme remains in the circulation many hours after the infusion that would also be prone to inactivation.
Based on human plasma PK data, these concentrations are readily obtainable in the clinic.

[9] = rat, iv
[10] = 4 doses Lumizyme 20 mg/kg +/− 1-DNJ 30 mg/kg SQ at 3-4 day intervals, 3 days after the last dose

Substance: alglucosidase alfa [Lumizyme®]
- Protein solubility ([1]; Arginine 100 mM, 1-DNJ-HCl 32 mg/mL): 201 mg/mL
- Protein solubility ([1]; Arginine + Glutamic acid 50 mM + 50 mM, 1-DNJ-HCl 160 mg/mL): 242 mg/mL
- Protein solubility ([1]; Gamma-cyclodextrin 10% (w/v), 1-DNJ-HCl 160 mg/mL): 114 mg/mL
- Protein solubility ([1]; PEG400 5% (w/v), 1-DNJ-HCl 160 mg/mL): 158 mg/mL
- Protein solubility ([1]; Proline 250 mM, 1-DNJ-HCl 160 mg/mL): 195 mg/mL
- solubility of the protein ([1]; without the added excipients): about 80 mg/mL
- rhGAA activity uptake, Biceps [2, 10]: 56.0 nmol/mg/h
- rhGAA activity uptake, Diaphragm [2, 10]: 4.2 nmol/mg/h
- rhGAA activity uptake, Gastrocnemius [2, 10]: 2.0 nmol/mg/h
- rhGAA activity uptake, Heart [2, 10]: 1.9 nmol/mg/h
- rhGAA activity uptake, Quadriceps [2, 10]: 2.1 nmol/mg/h
- rhGAA activity uptake, Skin [2, 10]: 75 nmol/mg/h
- rhGAA activity uptake, Soleus [2, 10]: 2.7 nmol/mg/h
- rhGAA activity uptake, Tongue [2, 10]: 2.7 nmol/mg/h
- rhGAA activity uptake, Triceps [2, 10]: 88.0 nmol/mg/h

Substance: alglucosidase alfa [Myozyme®]
- stability of Myozyme® at lysosomal pH vs ER pH [3]: much more stable at lysosomal pH (5.2) than at ER pH (7.4)
- Myozyme® tissue uptake (as a measure of GAA activity) over time [4]: declined at 7 days post injection
- glycogen reduction in diaphragm [5]: 41±4%
- glycogen reduction in heart [5]: 93±1%
- glycogen reduction in quadriceps [5]: 18±4%
- glycogen reduction in soleus [5]: 69±3%
- rhGAA activity uptake, Biceps [6]: 10.1 nmol/mg/h
- rhGAA activity uptake, Diaphragm [6]: 7.1 nmol/mg/h
- rhGAA activity uptake, Gastrocnemius [6]: 17.9 nmol/mg/h
- rhGAA activity uptake, Heart [6]: 1.8 nmol/mg/h
- rhGAA activity uptake, Quadriceps [6]: 6.9 nmol/mg/h
- rhGAA activity uptake, Skin [6]: 27.1 nmol/mg/h
- rhGAA activity uptake, Soleus [6]: 8.0 nmol/mg/h
- rhGAA activity uptake, Tongue [6]: 12.4 nmol/mg/h
- rhGAA activity uptake, Triceps [6]: 3.9 nmol/mg/h
- plasma half-life [7]: more than 3 hrs

Substance: rhGAA: recombinant human acid α-glucosidase; Myozyme® in Examples 7-8, Lumizyme® in Example 13, product not named in Examples 5-6
- enzyme inactivated in whole blood ([8]; by 4 hrs): approximately 40%
- enzyme inactivated in whole blood ([8]; by 8 hrs): ~70%
- enzyme inactivated in whole blood ([8]; by 24 hrs): ~100%
- enzyme activity in whole blood ([8]; incubated with 50 μM 1-DNJ-HCl, up to 24 hrs): remained completely active
- plasma rhGAA levels ([2]; 4 hours after the final SQ dose): increased compared to the levels in the 2 hour samples
- in vivo half life of rhGAA [9]: 1.4 ± 0.2 h
